Laboratory results reported in patent US20060189522A1 (IMPERIAL INNOVATIONS, published 2006).

Legend:
[1] = target: T1, GLP-1 receptor in rat hypothalamic membrane preparations (rat, UniProt P32301 22-463); assay: competition with [125I]GLP-1 on rat hypothalamic membranes, radioligand displacement
T1 construct: whole, on cells; Native receptor in a rat hypothalamic membrane preparation, not intact cells and not a recombinant construct; also called GLP-receptor; GLP-IR
T1 sequence (looked up): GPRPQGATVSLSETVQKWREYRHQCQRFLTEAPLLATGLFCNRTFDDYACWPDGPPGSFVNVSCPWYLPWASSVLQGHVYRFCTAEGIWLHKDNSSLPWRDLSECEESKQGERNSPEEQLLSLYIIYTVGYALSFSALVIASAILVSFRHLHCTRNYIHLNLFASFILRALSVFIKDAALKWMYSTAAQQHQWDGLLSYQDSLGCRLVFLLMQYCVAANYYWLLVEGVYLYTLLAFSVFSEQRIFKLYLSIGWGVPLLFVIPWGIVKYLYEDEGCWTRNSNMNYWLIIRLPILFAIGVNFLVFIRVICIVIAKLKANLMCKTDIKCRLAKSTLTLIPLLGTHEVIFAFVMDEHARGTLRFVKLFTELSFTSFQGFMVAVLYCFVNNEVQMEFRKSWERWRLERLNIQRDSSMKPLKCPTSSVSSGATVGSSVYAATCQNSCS
Experimental: (§1) Membranes were incubated at room temperature for 90 min. Bound and free radioactivity were separated by centrifugation (2 min, 4° C.). Pelleted membranes were washed with assay buffer (0.5 ml, ice-cold), and the membranes were centrifuged as described above. The supernatant was removed, and the radioactivity in the pellet was counted using a γ-counter. […] All curves were constructed with points in triplicate. IC₅₀ values were calculated using the Prism 3 program (GraphPad Software, Inc., San Diego, Calif.).

[2] = target: T1, GLP-1 receptor in rat hypothalamic …; assay: competition with [125I]GLP-1 (100 pM) on rat hypothalamic membranes, radioligand displacement
Experimental: as §1

Q: With HSQGTFTSDYSKYLDSRRAQDFVQWLMNTKRNKNNIA (Bought from IAF BioChem Pharma) [human oxyntomodulin (OXM)] as the binder, how does the “affinity relative to GLP-1” value [1] read?
A: ~2 orders of magnitude weaker than GLP-1

Q: What about the IC50 [2] of the same binder?
A: 8.2 nM
